In assay [1] the target is T1, nucleocapsid protein of SARS-CoV-2 (SARS-CoV-2, UniProt P0DTC9 1-419).
Assay [2] addresses T1, nucleocapsid protein of SARS-CoV-2. The source holds these as a separate data set.

B1: rabbit monoclonal antibody 1F8 against the SARS-CoV-2 nucleocapsid protein (antibody, V domains shown)
VH: QEHLEESGGGLVKPGASLTLTCTASGFSLSNNYWICWVRQAPGKGLEWIACIYTGRDYTYYTSWAKGRFTISKTSSTTVTLQLNSLTAADTATYFCARNNTDYGDYWDLWGPGTLVTVSS
VL: AQVLTQTASPVSVAVGDTVTINCQASQSVYKNNYLAWYQLKPGQPPKLLIYWGTKLPSGVPSRFKGSGSGTHFTLTISDVQCDDAATYYCLGSYDCTIAECNVFGGGTEVVVEG
In assay [1], B1 came in with a dissociation constant Kd of 2.29 nM, a dissociation rate constant (koff) of 0.000206 s⁻¹ and an association rate constant (kon) of 90200 M⁻¹ s⁻¹.

B2: rabbit monoclonal antibody 5B12 against the SARS-CoV-2 nucleocapsid protein (antibody, V domains shown)
VH: QSLEESGGDLVQPEGTLTLTCTASGFSFFYDYYMCWVRQAPGKGLEWIGCIYGASGDTYYASWAKGRFTISKTSSTTVTLRMTSLTAADTATYFCARDVDTGSGIDFELWGPGTLVTVSS
VL: AYDMTQTPASVEVAVGGTVTIKCQASQSIGSYLSWYQQKPGQPPKLLIYSTSTLASGVPSRFKGSGSGTQFTLTISGVECADAATYYCQQGDTNHNIDNIFGGGTEVVVEG
As for B2, in assay [1], binding was put at a Kd of 1.89 nM, the koff is 8.29e-05 s⁻¹ and the kon turned out to be 44000 M⁻¹ s⁻¹.

B3: rabbit monoclonal antibody 1G7 against the SARS-CoV-2 nucleocapsid protein (antibody, V domains shown)
VH: QQQVVESGGGLVKPGASLTLTCEASGFSFSSGYDMCWVRQAPGKGLEWIACIYPGSSGNTYYASWAKGRFTISKTSSTTVTLQMTSLTAADTATYFCARTYASSSGDYIPYFFNLWGPGTLVTVSS
VL: DIVMTQTPASVEAAVGGTVTIKCQASENIYSGLAWYQQKPGQPPKLLIYDASDLASGVPSRFKGSGSGTEYTLTISDLECADAATYYCQNYYYSSRGFNTFGGGTEVVVKG
With B3, in assay [1], the Kd came to 8.14 nM, the koff stood at 9.87e-05 s⁻¹ and the on-rate (kon) was 12100 M⁻¹ s⁻¹. Further, the half-maximal effective concentration (EC50 (read off the curve)) in assay [2] was about 10 ng/mL.

B4: rabbit monoclonal antibody 5B4 against the SARS-CoV-2 nucleocapsid protein (antibody, V domains shown)
VH: QSLEESGGGLVKPGGTLTLTCTVSGLSLSTNAPNWVRQAPGKGLEWIGTIFIDDEDTYYASWAKGRFTISKTSSTTITLKMTSLTAADTATYFCARNSDLWDPGTLVVVSS
VL: AQVLTQTPSPVSAAVGGTVTINCQASQSVYNNNYLSWFQQKPGQPPKLLIYKASTLASGVSSRFKGSGSGTQFTLTISDVQCDDAATYFCLGSYDCRSANCIVFGGGTEVVVKG
As to B4, in assay [1], the Kd worked out at 0.717 nM, the koff came to 0.000261 s⁻¹ and the kon was 364000 M⁻¹ s⁻¹.

B5: rabbit monoclonal antibody 11B12 against the SARS-CoV-2 nucleocapsid protein (antibody, V domains shown)
VH: QQQLEESGGGLVKPGGTLTLTCTVSGLSLSSNTLNWVRQAPGKGLEWIGTIFIDDEDTYYASWAKGRFTISKTSSTTITLKMTSLTAADTATYFCARSSDLWDPGTLVVVSS
VL: AQVLTQTPSSVSAAVGGTVTINCQASQSVYKNNYLSWFQQKPGQPPKLLIYQASKLASGVSSRFKGSGSGTQFTLTISDVQCDDAATYFCLGSYDCRSANCIVFGGGTEVVVKG
Turning to B5, in assay [1], the Kd came out at 0.0565 nM, the koff was determined as 2.63e-05 s⁻¹ and the kon was found to be 465000 M⁻¹ s⁻¹.

B6: rabbit monoclonal antibody 6H7 against the SARS-CoV-2 nucleocapsid protein (antibody, V domains shown)
VH: QQQLEESGGGLVQPGGSLTLSCKASGFNVNSDCYMCWVRQAPGKGLEWIGCIDTVSGSTYYATWAKGRFTISKTSSTTVTLQMTSLTAADTATYFCARDFLYNVNNAGDIMDLWGPGTLVTVSL
VL: AQVLTQTPSSVSAAVGGTVTINCQSSYNVYNNNYLAWYQQKPGQPPKLLIYTTSTLASGVPSRFSGSGSGTQFTLTISDLECDDAAIYYCQGYYRGPVNDFGGGTEVVVEG
For B6, in assay [1], binding was characterised by a dissociation constant (Kd) of 0.674 nM, the koff amounted to 0.000238 s⁻¹ and the kon is 354000 M⁻¹ s⁻¹.

B7: rabbit monoclonal antibody 3A7 against the SARS-CoV-2 nucleocapsid protein (antibody, V domains shown)
VH: QEQLEESGGGLVQPEGSLTLTCTASGFSLSDSAYMCWVRQAPGKGLEWIACIDAGVSGSTYYASWVNGRFTISKTSSTTVTLQMTSLTVADTATYFCARDFLYTPNNAGDIMDLWGPGTLVTVSL
VL: AQVLTQTPSSVSAAVGGTVTINCQSSHTVYSNNYLSWYQQKPGQPPKLLIYSASSLASGVPSRFKGSGSGTQFTLTISDLECDDAAIYYCHGYWRGPVNDFGGGTEVVVEG
In assay [1], B7 had an equilibrium dissociation constant (Kd) of 1.22 nM, an off-rate (koff) of 0.000272 s⁻¹ and a kon of 224000 M⁻¹ s⁻¹.

One may read the Kd as the concentration at which binding is half-saturated. A lower Kd goes with higher affinity. The term koff denotes a measure of how fast the partners let go of each other. Higher therefore signals a short-lived complex. As usually defined, the kon is the rate constant with which the complex forms. Lower therefore signals slower complex formation. What is called EC50 (read off the curve) is the concentration at which the effect is half-maximal.

Source of the values: patent US20220056112A1 (YUROGEN BIOSYSTEMS, published 2022).
